US20140274782A1, “AFFINITY REAGENTS AND METHODS FOR DETECTION, PURIFICATION, AND PROTEOMIC ANALYSIS OF METHYLATED PROTEINS” (The Board of Trustees of the Leland Stanford Junior …, priority 2013, published 2014)

T1: G9a and GLP (Homo sapiens, UniProt Q96KQ7+Q9H9B1)
T1 sequence (Q96KQ7 2-1210 limits assumed): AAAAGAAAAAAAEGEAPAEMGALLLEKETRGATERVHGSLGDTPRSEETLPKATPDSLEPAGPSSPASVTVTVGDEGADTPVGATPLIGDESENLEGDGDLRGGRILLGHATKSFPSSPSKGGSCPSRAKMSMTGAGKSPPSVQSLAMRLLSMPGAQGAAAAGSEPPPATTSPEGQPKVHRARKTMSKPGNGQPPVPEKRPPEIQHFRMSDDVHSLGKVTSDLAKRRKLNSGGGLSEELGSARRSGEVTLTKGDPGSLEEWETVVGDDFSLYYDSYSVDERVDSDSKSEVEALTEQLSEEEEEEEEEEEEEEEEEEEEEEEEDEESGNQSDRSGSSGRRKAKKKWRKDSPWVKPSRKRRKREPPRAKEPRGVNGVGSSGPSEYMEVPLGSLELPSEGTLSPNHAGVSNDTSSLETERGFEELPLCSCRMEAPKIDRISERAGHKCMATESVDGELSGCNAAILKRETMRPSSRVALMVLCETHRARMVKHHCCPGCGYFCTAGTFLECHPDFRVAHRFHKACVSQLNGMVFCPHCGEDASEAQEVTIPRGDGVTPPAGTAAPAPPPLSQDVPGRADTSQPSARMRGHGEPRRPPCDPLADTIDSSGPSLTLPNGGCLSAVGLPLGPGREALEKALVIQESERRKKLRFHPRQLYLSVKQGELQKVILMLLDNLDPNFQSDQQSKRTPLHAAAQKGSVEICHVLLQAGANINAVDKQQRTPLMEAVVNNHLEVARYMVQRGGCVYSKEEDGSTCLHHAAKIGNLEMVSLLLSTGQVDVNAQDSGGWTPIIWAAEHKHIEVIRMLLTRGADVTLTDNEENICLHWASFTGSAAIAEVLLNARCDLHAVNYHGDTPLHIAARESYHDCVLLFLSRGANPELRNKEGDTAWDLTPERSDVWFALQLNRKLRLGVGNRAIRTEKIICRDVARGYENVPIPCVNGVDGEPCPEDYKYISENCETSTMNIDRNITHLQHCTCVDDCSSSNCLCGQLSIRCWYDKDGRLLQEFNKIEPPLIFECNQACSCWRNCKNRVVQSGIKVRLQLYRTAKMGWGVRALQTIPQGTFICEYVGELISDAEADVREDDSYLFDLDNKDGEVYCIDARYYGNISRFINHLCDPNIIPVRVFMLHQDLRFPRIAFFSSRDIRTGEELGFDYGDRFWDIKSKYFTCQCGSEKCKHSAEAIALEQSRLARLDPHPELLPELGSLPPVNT
T1 sequence (Q9H9B1 2-1298 limits assumed): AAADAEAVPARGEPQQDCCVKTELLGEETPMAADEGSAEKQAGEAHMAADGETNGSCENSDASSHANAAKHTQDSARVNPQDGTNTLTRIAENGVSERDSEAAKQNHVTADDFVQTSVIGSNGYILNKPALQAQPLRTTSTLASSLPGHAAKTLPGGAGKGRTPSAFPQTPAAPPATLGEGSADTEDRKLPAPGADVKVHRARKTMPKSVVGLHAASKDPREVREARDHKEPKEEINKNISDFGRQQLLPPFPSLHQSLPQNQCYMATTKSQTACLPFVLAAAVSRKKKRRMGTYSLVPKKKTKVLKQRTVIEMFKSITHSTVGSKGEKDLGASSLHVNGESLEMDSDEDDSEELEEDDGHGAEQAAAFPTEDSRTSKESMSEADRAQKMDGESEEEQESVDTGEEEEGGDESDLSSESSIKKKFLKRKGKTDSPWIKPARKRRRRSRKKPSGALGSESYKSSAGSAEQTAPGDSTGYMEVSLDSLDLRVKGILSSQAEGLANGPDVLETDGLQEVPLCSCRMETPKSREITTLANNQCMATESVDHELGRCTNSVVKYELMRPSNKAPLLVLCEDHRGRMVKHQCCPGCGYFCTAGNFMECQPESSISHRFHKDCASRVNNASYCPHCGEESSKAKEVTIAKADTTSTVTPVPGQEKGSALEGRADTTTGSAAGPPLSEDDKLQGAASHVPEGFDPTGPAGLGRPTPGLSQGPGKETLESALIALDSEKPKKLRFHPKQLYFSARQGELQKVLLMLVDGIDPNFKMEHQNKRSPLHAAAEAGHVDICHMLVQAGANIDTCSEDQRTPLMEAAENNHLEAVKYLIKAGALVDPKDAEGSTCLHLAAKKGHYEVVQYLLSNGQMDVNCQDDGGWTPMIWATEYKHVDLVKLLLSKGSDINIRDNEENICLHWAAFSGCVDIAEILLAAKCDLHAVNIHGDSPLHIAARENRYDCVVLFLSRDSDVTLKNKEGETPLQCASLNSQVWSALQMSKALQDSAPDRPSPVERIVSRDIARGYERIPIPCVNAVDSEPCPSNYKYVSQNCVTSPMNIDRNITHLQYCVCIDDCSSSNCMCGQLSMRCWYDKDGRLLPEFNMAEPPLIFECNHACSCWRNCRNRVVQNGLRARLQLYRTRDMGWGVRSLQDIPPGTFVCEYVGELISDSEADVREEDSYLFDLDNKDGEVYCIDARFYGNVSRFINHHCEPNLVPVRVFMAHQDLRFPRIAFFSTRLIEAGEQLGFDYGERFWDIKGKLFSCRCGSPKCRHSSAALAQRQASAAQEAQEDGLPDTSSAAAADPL


Experiments:
G9a and GLP = target: T1, G9a and GLP; experiment: Triple SILAC pull-down after UNC0638 treatment of 293T cells, DMSO/UNC0638 ratio of protein captured by 3×MBT; assay type: cell-based; design: endogenous in cells; host or cells: HEK 293T; conditions: for Relative to UNC0638 UNC Heavy / Relative to UNC0638 UNC Light: SILAC ratio DMSO/UNC0638 of protein pulled down with 3xMBT; for Relative to UNC0638 UNC Heavy: UNC0638 in heavy SILAC media; for Relative to UNC0638 UNC Light: UNC0638 in light SILAC media; for Relative to UNC0638 Average: average of UNC Light and UNC Heavy experiments;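 as to all read-outs here: mass spectrometry (Q-Exactive) SILAC quantitation, DMSO/UNC0638 ratio computed after subtracting 3×MBTD355N mutant pull-down background, only proteins with at least twofold 3×MBT over mutant signal considered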
3×MBT domain of L3MBTL1 = experiment: Triple SILAC pull-down, 3xMBT/3xMBTD355N ratio (cytoplasmic, nuclear and chromatin fractions of 293T cells); assay type: binding, human; conditions: SILAC ratio, pull-down 3xMBT vs 3xMBTD355N; for 3xMBT/D355N UNC Heavy: experiment with UNC0638 in heavy SILAC media; for 3xMBT/D355N UNC Light: experiment with UNC0638 in light SILAC media;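 as to all read-outs here: proteins quantified with MaxQuant, requiring at least two unique peptides and quantification in both label directions, normalized to the mean of proteins from a digested loading control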

Molecule	Relative to UNC0638 UNC Heavy (G9a and GLP)	Relative to UNC0638 UNC Light (G9a and GLP)	Relative to UNC0638 Average (G9a and GLP)	Candidate G9a/GLP target (G9a and GLP; reduced association with 3xMBT after UNC0638 treatment)	3xMBT/D355N UNC Heavy (3×MBT domain of L3MBTL1)	3xMBT/D355N UNC Light (3×MBT domain of L3MBTL1)
DCAF7 (protein, UniProt P61962 1-342, looked up) DDB1- and CUL4-associated …: MSLHGKRKEIYKYEAPWTVYAMNWSVRPDKRFRLALGSFVEEYNNKVQLVGLDEESSEFICRNTFDHPYPTTKLMWIPDTKGVYPDLLATSGDYLRVWRVGETETRLECLLNNNKNSDFCAPLTSFDWNEVDPYLLGTSSIDTTCTIWGLETGQVLGRVNLVSGHVKTQLIAHDKEVYDIAFSRAGGGRDMFASVGADGSVRMFDLRHLEHSTIIYEDPQHHPLLRLCWNKQDPNYLATMAMDGMEVVILDVRVPCTPVARLNNHRACVNGIAWAPHSSCHICTAADDHQALIWDIQQMPRAIEDPILAYTAEGEINNVQWASTQPDWIAICYNNCLEILRV	0.69 log base 2	0.48 log base 2	0.59 log base 2	✓	1.67 log base 2	1.31 log base 2
C22orf28 (protein, UniProt Q9Y3I0 1-505, looked up) RNA-splicing ligase RtcB …: MSRSYNDELQFLEKINKNCWRIKKGFVPNMQVEGVFYVNDALEKLMFEELRNACRGGGVGGFLPAMKQIGNVAALPGIVHRSIGLPDVHSGYGFAIGNMAAFDMNDPEAVVSPGGVGFDINCGVRLLRTNLDESDVQPVKEQLAQAMFDHIPVGVGSKGVIPMNAKDLEEALEMGVDWSLREGYAWAEDKEHCEEYGRMLQADPNKVSARAKKRGLPQLGTLGAGNHYAEIQVVDEIFNEYAAKKMGIDHKGQVCVMIHSGSRGLGHQVATDALVAMEKAMKRDKIIVNDRQLACARIASPEGQDYLKGMAAAGNYAWVNRSSMTFLTRQAFAKVFNTTPDDLDLHVIYDVSHNIAKVEQHVVDGKERTLLVHRKGSTRAFPPHHPLIAVDYQLTGQPVLIGGTMGTCSYVLTGTEQGMTETFGTTCHGAGRALSRAKSRRNLDFQDVLDKLADMGIAIRVASPKLVMEEAPESYKNVTDVVNTCHDAGISKKAIKLRPIAVIKG	0.08 log base 2	0.22 log base 2	0.15 log base 2	–	2.49 log base 2	2.67 log base 2

Second part, led by results:

Relative to UNC0638 UNC Heavy (G9a and GLP)	Relative to UNC0638 UNC Light (G9a and GLP)	Relative to UNC0638 Average (G9a and GLP)	Candidate G9a/GLP target (G9a and GLP; reduced association with 3xMBT after UNC0638 treatment)	Molecule	3xMBT/D355N UNC Heavy (3×MBT domain of L3MBTL1)	3xMBT/D355N UNC Light (3×MBT domain of L3MBTL1)
0.08 log base 2	0.22 log base 2	0.15 log base 2	–	SNRPA1 (protein, UniProt P09661 2-255, looked up) U2 small nuclear …: VKLTAELIEQAAQYTNAVRDRELDLRGYKIPVIENLGATLDQFDAIDFSDNEIRKLDGFPLLRRLKTLLVNNNRICRIGEGLDQALPCLTELILTNNSLVELGDLDPLASLKSLTYLSILRNPVTNKKHYRLYVIYKVPQVRVLDFQKVKLKERQEAEKMFKGKRGAQLAKDIARRSKTFNPGAGLPTDKKKGGPSPGDVEAIKNAIANASTLAEVERLKGLLQSGQIPGRERRSGPTDDGEEEMEEDTVTNGS	2.94 log base 2	3.39 log base 2
0.09 log base 2	0.20 log base 2	0.14 log base 2	–	DENR (protein, UniProt O43583 2-198, looked up) Density-regulated protein: AADISESSGADCKGDPRNSAKLDADYPLRVLYCGVCSLPTEYCEYMPDVAKCRQWLEKNFPNEFAKLTVENSPKQEAGISEGQGTAGEEEEKKKQKRGGRGQIKQKKKTVPQKVTIAKIPRAKKKYVTRVCGLATFEIDLKEAQRFFAQKFSCGASVTGEDEIIIQGDFTDDIIDVIQEKWPEVDDDSIEDLGEVKK	2.50 log base 2	3.36 log base 2
0.24 log base 2	0.06 log base 2	0.15 log base 2	–	EIF4E2 (protein, UniProt O60573 1-245, looked up) Eukaryotic translation …: MNNKFDALKDDDSGDHDQNEENSTQKDGEKEKTERDKNQSSSKRKAVVPGPAEHPLQYNYTFWYSRRTPGRPTSSQSYEQNIKQIGTFASVEQFWRFYSHMVRPGDLTGHSDFHLFKEGIKPMWEDDANKNGGKWIIRLRKGLASRCWENLILAMLGEQFMVGEEICGAVVSVRFQEDIISIWNKTASDQATTARIRDTLRRVLNLPPNTIMEYKTHTDSIKMPGRLGPQRLLFQNLWKPRLNVP	1.89 log base 2	2.26 log base 2
0.21 log base 2	0.08 log base 2	0.14 log base 2	–	RBM26 (protein, UniProt Q5T8P6 1-1007, looked up) RNA-binding protein 26: MVSKMIIENFEALKSWLSKTLEPICDADPSALAKYVLALVKKDKSEKELKALCIDQLDVFLQKETQIFVEKLFDAVNTKSYLPPPEQPSSGSLKVEFFPHQEKDIKKEEITKEEEREKKFSRRLNHSPPQSSSRYRENRSRDERKKDDRSRKRDYDRNPPRRDSYRDRYNRRRGRSRSYSRSRSRSWSKERLRERDRDRSRTRSRSRTRSRERDLVKPKYDLDRTDPLENNYTPVSSVPSISSGHYPVPTLSSTITVIAPTHHGNNTTESWSEFHEDQVDHNSYVRPPMPKKRCRDYDEKGFCMRGDMCPFDHGSDPVVVEDVNLPGMLPFPAQPPVVEGPPPPGLPPPPPILTPPPVNLRPPVPPPGPLPPSLPPVTGPPPPLPPLQPSGMDAPPNSATSSVPTVVTTGIHHQPPPAPPSLFTADTYDTDGYNPEAPSITNTSRPMYRHRVHAQRPNLIGLTSGDMDLPPREKPPNKSSMRIVVDSESRKRTIGSGEPGVPTKKTWFDKPNFNRTNSPGFQKKVQFGNENTKLELRKVPPELNNISKLNEHFSRFGTLVNLQVAYNGDPEGALIQFATYEEAKKAISSTEAVLNNRFIKVYWHREGSTQQLQTTSPKVMQPLVQQPILPVVKQSVKERLGPVPSSTIEPAEAQSASSDLPQNVTKLSVKDRLGFVSKPSVSATEKVLSTSTGLTKTVYNPAALKAAQKTLLVSTSAVDNNEAQKKKQEALKLQQDVRKRKQEILEKHIETQKMLISKLEKNKTMKSEDKAEIMKTLEVLTKNITKLKDEVKAASPGRCLPKSIKTKTQMQKELLDTELDLYKKMQAGEEVTELRRKYTELQLEAAKRGILSSGRGRGIHSRGRGAVHGRGRGRGRGRGVPGHAVVDHRPRALEISAFTESDREDLLPHFAQYGEIEDCQIDDSSLHAVITFKTRAEAEAAAVHGARFKGQDLKLAWNKPVTNISAVETEEVEPDEEEFQEESLVDDSLLQDDDEEEEDNESRSWRR	2.44 log base 2	2.00 log base 2
